B1: library; numbered along this chain (parent)
chain: MAAAAAAAAEQQSSNGPVKKSMREKAVERRSVNKEHNSNFKAGYIPIDEDRLHKTGLRGRKGNLAICVIILLFILAVINLIITLVIWAVIRIGPNGCDSMEFHESGLLRFKQVSDMGVIHPLYKSTVGGRRNENLVITGNNQPIVFQQGTTKLSVENNKTSITSDIGMQFFDPRTQNILFSTDYETHEFHLPSGVKSLNVQKASTERITSNATSDLNIKVDGRAIVRGNEGVFIMGKTIEFHMGGNMELKAENSIILNGSVMVSTTRLPSSSSGDQLGSGDWVRYKLCMCADGTLFKVQVTSQNMGCQISDNPCGNTH

Variants of: B1
Assay: SGCB cell-surface expression functional score (HA stain, bin4 vs bin1, normalised to synonymous) (log10 ratio); higher = more cell-surface SGCB (functional)
Procedure, shortened: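 Codon-saturation libraries of HA-tagged, YFP-fused human beta-sarcoglycan were lentivirally transduced at MOI <0.1 into HEK293 cells stably expressing alpha-, gamma- and delta-sarcoglycan. YFP-positive cells were sorted after 72 hours, grown 5–7 days, stained on ice with Alexa Fluor 647 anti-HA, fixed, sorted into four 5% intensity bins and amplicon-sequenced. The functional score is the log ratio of highest-bin to lowest-bin variant frequency, taken as the median over codons and duplicate transductions. Synonymous variants were scaled per section to mean 0, SD 0.5.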

| Variant | SGCB cell-surface expression functional score (log10) |
| --- | --- |
| MAAAAAAAAEQQSSNGPVKKSMREKAVERRSVNKEHNSNFKAGYIPIDEDRLHKTGLRGRKGNLAICVIILLFILAVINLIITLVIWAVIRIGPNGCDSMEFHESGLLRFKQVSDMGVIHPLYKSTVGGRRNENLVITGNNQPIVFQQGTTKLSVENNKTSITSDIGMQFFDPRTQNILFSTDYETHEFHLPSGVKSLNVQKASTERITSNATSDLNIKVDGRAIVRGNEGVFIMGKTIEFHMGGNMELKAENSIILNGSVMVSTTRLPSSSSGDQLGQGDWVRYKLCMCADGTLFKVQVTSQNMGCQISDNPCGNTH [S279Q] | -0.19 |
| MAAAAAAAAEQQSSNGPVKKSMREKAVERRSVNKEHNSNFKAGYIPIDEDRLHKTGLRGRKGNLAICVIILLFILAVINLIITLVIWAVIRIGPNGCDSMEFHESGLLRFKQVSDMGVIHPLYKSTVGGRRNENLVITGNNQPIVFQQGTTKLSVENNKTSITSDIGMQFFDPRTQNILFSTDYETHEFHLPSGVKSLNVQKASTERITSNATSDLNIKVDGRAIVRGNEGVFIMGKTIEFHMGGNMELKAENSIILNGSVMVSTTRLPSSSSGDQLGTGDWVRYKLCMCADGTLFKVQVTSQNMGCQISDNPCGNTH [S279T] | 0.09 |
| MAAAAAAAAEQQSSNGPVKKSMREKAVERRSVNKEHNSNFKAGYIPIDEDRLHKTGLRGRKGNLAICVIILLFILAVINLIITLVIWAVIRIGPNGCDSMEFHESGLLRFKQVSDMGVIHPLYKSTVGGRRNENLVITGNNQPIVFQQGTTKLSVENNKTSITSDIGMQFFDPRTQNILFSTDYETHEFHLPSGVKSLNVQKASTERITSNATSDLNIKVDGRAIVRGNEGVFIMGKTIEFHMGGNMELKAENSIILNGSVMVSTTRLPSSSSGDQLGMGDWVRYKLCMCADGTLFKVQVTSQNMGCQISDNPCGNTH [S279M] | 0.56 |
| MAAAAAAAAEQQSSNGPVKKSMREKAVERRSVNKEHNSNFKAGYIPIDEDRLHKTGLRGRKGNLAICVIILLFILAVINLIITLVIWAVIRIGPNGCDSMEFHESGLLRFKQVSDMGVIHPLYKSTVGGRRNENLVITGNNQPIVFQQGTTKLSVENNKTSITSDIGMQFFDPRTQNILFSTDYETHEFHLPSGVKSLNVQKASTERITSNATSDLNIKVDGRAIVRGNEGVFIMGKTIEFHMGGNMELKAENSIILNGSVMVSTTRLPSSSSGDQLGWGDWVRYKLCMCADGTLFKVQVTSQNMGCQISDNPCGNTH [S279W] | -0.2 |
| MAAAAAAAAEQQSSNGPVKKSMREKAVERRSVNKEHNSNFKAGYIPIDEDRLHKTGLRGRKGNLAICVIILLFILAVINLIITLVIWAVIRIGPNGCDSMEFHESGLLRFKQVSDMGVIHPLYKSTVGGRRNENLVITGNNQPIVFQQGTTKLSVENNKTSITSDIGMQFFDPRTQNILFSTDYETHEFHLPSGVKSLNVQKASTERITSNATSDLNIKVDGRAIVRGNEGVFIMGKTIEFHMGGNMELKAENSIILNGSVMVSTTRLPSSSSGDQLGPGDWVRYKLCMCADGTLFKVQVTSQNMGCQISDNPCGNTH [S279P] | 0.24 |
| MAAAAAAAAEQQSSNGPVKKSMREKAVERRSVNKEHNSNFKAGYIPIDEDRLHKTGLRGRKGNLAICVIILLFILAVINLIITLVIWAVIRIGPNGCDSMEFHESGLLRFKQVSDMGVIHPLYKSTVGGRRNENLVITGNNQPIVFQQGTTKLSVENNKTSITSDIGMQFFDPRTQNILFSTDYETHEFHLPSGVKSLNVQKASTERITSNATSDLNIKVDGRAIVRGNEGVFIMGKTIEFHMGGNMELKAENSIILNGSVMVSTTRLPSSSSGDQLGRGDWVRYKLCMCADGTLFKVQVTSQNMGCQISDNPCGNTH [S279R] | 0.16 |
| MAAAAAAAAEQQSSNGPVKKSMREKAVERRSVNKEHNSNFKAGYIPIDEDRLHKTGLRGRKGNLAICVIILLFILAVINLIITLVIWAVIRIGPNGCDSMEFHESGLLRFKQVSDMGVIHPLYKSTVGGRRNENLVITGNNQPIVFQQGTTKLSVENNKTSITSDIGMQFFDPRTQNILFSTDYETHEFHLPSGVKSLNVQKASTERITSNATSDLNIKVDGRAIVRGNEGVFIMGKTIEFHMGGNMELKAENSIILNGSVMVSTTRLPSSSSGDQLGNGDWVRYKLCMCADGTLFKVQVTSQNMGCQISDNPCGNTH [S279N] | 0.15 |
| MAAAAAAAAEQQSSNGPVKKSMREKAVERRSVNKEHNSNFKAGYIPIDEDRLHKTGLRGRKGNLAICVIILLFILAVINLIITLVIWAVIRIGPNGCDSMEFHESGLLRFKQVSDMGVIHPLYKSTVGGRRNENLVITGNNQPIVFQQGTTKLSVENNKTSITSDIGMQFFDPRTQNILFSTDYETHEFHLPSGVKSLNVQKASTERITSNATSDLNIKVDGRAIVRGNEGVFIMGKTIEFHMGGNMELKAENSIILNGSVMVSTTRLPSSSSGDQLGVGDWVRYKLCMCADGTLFKVQVTSQNMGCQISDNPCGNTH [S279V] | 0.21 |
| MAAAAAAAAEQQSSNGPVKKSMREKAVERRSVNKEHNSNFKAGYIPIDEDRLHKTGLRGRKGNLAICVIILLFILAVINLIITLVIWAVIRIGPNGCDSMEFHESGLLRFKQVSDMGVIHPLYKSTVGGRRNENLVITGNNQPIVFQQGTTKLSVENNKTSITSDIGMQFFDPRTQNILFSTDYETHEFHLPSGVKSLNVQKASTERITSNATSDLNIKVDGRAIVRGNEGVFIMGKTIEFHMGGNMELKAENSIILNGSVMVSTTRLPSSSSGDQLGYGDWVRYKLCMCADGTLFKVQVTSQNMGCQISDNPCGNTH [S279Y] | 0.05 |
| MAAAAAAAAEQQSSNGPVKKSMREKAVERRSVNKEHNSNFKAGYIPIDEDRLHKTGLRGRKGNLAICVIILLFILAVINLIITLVIWAVIRIGPNGCDSMEFHESGLLRFKQVSDMGVIHPLYKSTVGGRRNENLVITGNNQPIVFQQGTTKLSVENNKTSITSDIGMQFFDPRTQNILFSTDYETHEFHLPSGVKSLNVQKASTERITSNATSDLNIKVDGRAIVRGNEGVFIMGKTIEFHMGGNMELKAENSIILNGSVMVSTTRLPSSSSGDQLGSIDWVRYKLCMCADGTLFKVQVTSQNMGCQISDNPCGNTH [G280I] | 0.26 |
| MAAAAAAAAEQQSSNGPVKKSMREKAVERRSVNKEHNSNFKAGYIPIDEDRLHKTGLRGRKGNLAICVIILLFILAVINLIITLVIWAVIRIGPNGCDSMEFHESGLLRFKQVSDMGVIHPLYKSTVGGRRNENLVITGNNQPIVFQQGTTKLSVENNKTSITSDIGMQFFDPRTQNILFSTDYETHEFHLPSGVKSLNVQKASTERITSNATSDLNIKVDGRAIVRGNEGVFIMGKTIEFHMGGNMELKAENSIILNGSVMVSTTRLPSSSSGDQLGSEDWVRYKLCMCADGTLFKVQVTSQNMGCQISDNPCGNTH [G280E] | 0.02 |
| MAAAAAAAAEQQSSNGPVKKSMREKAVERRSVNKEHNSNFKAGYIPIDEDRLHKTGLRGRKGNLAICVIILLFILAVINLIITLVIWAVIRIGPNGCDSMEFHESGLLRFKQVSDMGVIHPLYKSTVGGRRNENLVITGNNQPIVFQQGTTKLSVENNKTSITSDIGMQFFDPRTQNILFSTDYETHEFHLPSGVKSLNVQKASTERITSNATSDLNIKVDGRAIVRGNEGVFIMGKTIEFHMGGNMELKAENSIILNGSVMVSTTRLPSSSSGDQLGSMDWVRYKLCMCADGTLFKVQVTSQNMGCQISDNPCGNTH [G280M] | 0.03 |
| MAAAAAAAAEQQSSNGPVKKSMREKAVERRSVNKEHNSNFKAGYIPIDEDRLHKTGLRGRKGNLAICVIILLFILAVINLIITLVIWAVIRIGPNGCDSMEFHESGLLRFKQVSDMGVIHPLYKSTVGGRRNENLVITGNNQPIVFQQGTTKLSVENNKTSITSDIGMQFFDPRTQNILFSTDYETHEFHLPSGVKSLNVQKASTERITSNATSDLNIKVDGRAIVRGNEGVFIMGKTIEFHMGGNMELKAENSIILNGSVMVSTTRLPSSSSGDQLGSLDWVRYKLCMCADGTLFKVQVTSQNMGCQISDNPCGNTH [G280L] | -0.28 |
| MAAAAAAAAEQQSSNGPVKKSMREKAVERRSVNKEHNSNFKAGYIPIDEDRLHKTGLRGRKGNLAICVIILLFILAVINLIITLVIWAVIRIGPNGCDSMEFHESGLLRFKQVSDMGVIHPLYKSTVGGRRNENLVITGNNQPIVFQQGTTKLSVENNKTSITSDIGMQFFDPRTQNILFSTDYETHEFHLPSGVKSLNVQKASTERITSNATSDLNIKVDGRAIVRGNEGVFIMGKTIEFHMGGNMELKAENSIILNGSVMVSTTRLPSSSSGDQLGSHDWVRYKLCMCADGTLFKVQVTSQNMGCQISDNPCGNTH [G280H] | 0.05 |
| MAAAAAAAAEQQSSNGPVKKSMREKAVERRSVNKEHNSNFKAGYIPIDEDRLHKTGLRGRKGNLAICVIILLFILAVINLIITLVIWAVIRIGPNGCDSMEFHESGLLRFKQVSDMGVIHPLYKSTVGGRRNENLVITGNNQPIVFQQGTTKLSVENNKTSITSDIGMQFFDPRTQNILFSTDYETHEFHLPSGVKSLNVQKASTERITSNATSDLNIKVDGRAIVRGNEGVFIMGKTIEFHMGGNMELKAENSIILNGSVMVSTTRLPSSSSGDQLGSFDWVRYKLCMCADGTLFKVQVTSQNMGCQISDNPCGNTH [G280F] | 0.08 |
| MAAAAAAAAEQQSSNGPVKKSMREKAVERRSVNKEHNSNFKAGYIPIDEDRLHKTGLRGRKGNLAICVIILLFILAVINLIITLVIWAVIRIGPNGCDSMEFHESGLLRFKQVSDMGVIHPLYKSTVGGRRNENLVITGNNQPIVFQQGTTKLSVENNKTSITSDIGMQFFDPRTQNILFSTDYETHEFHLPSGVKSLNVQKASTERITSNATSDLNIKVDGRAIVRGNEGVFIMGKTIEFHMGGNMELKAENSIILNGSVMVSTTRLPSSSSGDQLGSDDWVRYKLCMCADGTLFKVQVTSQNMGCQISDNPCGNTH [G280D] | -0.56 |
| MAAAAAAAAEQQSSNGPVKKSMREKAVERRSVNKEHNSNFKAGYIPIDEDRLHKTGLRGRKGNLAICVIILLFILAVINLIITLVIWAVIRIGPNGCDSMEFHESGLLRFKQVSDMGVIHPLYKSTVGGRRNENLVITGNNQPIVFQQGTTKLSVENNKTSITSDIGMQFFDPRTQNILFSTDYETHEFHLPSGVKSLNVQKASTERITSNATSDLNIKVDGRAIVRGNEGVFIMGKTIEFHMGGNMELKAENSIILNGSVMVSTTRLPSSSSGDQLGSADWVRYKLCMCADGTLFKVQVTSQNMGCQISDNPCGNTH [G280A] | -0.01 |
| MAAAAAAAAEQQSSNGPVKKSMREKAVERRSVNKEHNSNFKAGYIPIDEDRLHKTGLRGRKGNLAICVIILLFILAVINLIITLVIWAVIRIGPNGCDSMEFHESGLLRFKQVSDMGVIHPLYKSTVGGRRNENLVITGNNQPIVFQQGTTKLSVENNKTSITSDIGMQFFDPRTQNILFSTDYETHEFHLPSGVKSLNVQKASTERITSNATSDLNIKVDGRAIVRGNEGVFIMGKTIEFHMGGNMELKAENSIILNGSVMVSTTRLPSSSSGDQLGSCDWVRYKLCMCADGTLFKVQVTSQNMGCQISDNPCGNTH [G280C] | -0.75 |
| MAAAAAAAAEQQSSNGPVKKSMREKAVERRSVNKEHNSNFKAGYIPIDEDRLHKTGLRGRKGNLAICVIILLFILAVINLIITLVIWAVIRIGPNGCDSMEFHESGLLRFKQVSDMGVIHPLYKSTVGGRRNENLVITGNNQPIVFQQGTTKLSVENNKTSITSDIGMQFFDPRTQNILFSTDYETHEFHLPSGVKSLNVQKASTERITSNATSDLNIKVDGRAIVRGNEGVFIMGKTIEFHMGGNMELKAENSIILNGSVMVSTTRLPSSSSGDQLGSKDWVRYKLCMCADGTLFKVQVTSQNMGCQISDNPCGNTH [G280K] | 0.07 |
